B1: HGF-α (domain or fragment, UniProt P14210 32-473, looked up)
chain: QRKRRNTIHEFKKSAKTTLIKIDPALKIKTKKVNTADQCANRCTRNKGLPFTCKAFVFDKARKQCLWFPFNSMSSGVKKEFGHEFDLYENKDYIRNCIIGKGRSYKGTVSITKSGIKCQPWSSMIPHEHSFLPSSYRGKDLQENYCRNPRGEEGGPWCFTSNPEVRYEVCDIPQCSEVECMTCNGESYRGLMDHTESGKICQRWDHQTPHRHKFLPERYPDKGFDDNYCRNPDGQPRPWCYTLDPHTRWEYCAIKTCADNTMNDTDVPLETTECIQGQGEGYRGTVNTIWNGIPCQRWDSQYPHEHDMTPENFKCKDLRENYCRNPDGSESPWCFTTDPNIRVGYCSQIPNCDMSHGQDCYRGNGKNYMGNLSQTRSGLTCSMWDKNMEDLHRHIFWEPDASKLNENYCRNPDDDAHGPWCYTGNPLIPWDYCPISRCEGDT
B2: PSI-IPT (domain or fragment, UniProt P08581 516-932, looked up)
chain: NGLGCRHFQSCSQCLSAPPFVQCGWCHDKCVRSEECLSGTWTQQICLPAIYKVFPNSAPLEGGTRLTICGWDFGFRRNNKFDLKKTRVLLGNESCTLTLSESTMNTLKCTVGPAMNKHFNMSIIISNGHGTTQYSTFSYVDPVITSISPKYGPMAGGTLLTLTGNYLNSGNSRHISIGGKTCTLKSVSNSILECYTPAQTISTEFAVKLKIDLANRETSIFSYREDPIVYEIHPTKSFISGGSTITGVGKNLNSVSVPRMVINVHEAGRNFTVACQHRSNSEIICCTTPSLQQLNLQLPLKTKAFFMLDGILSKYFDLIYVHNPVFKPFEKPVMISMGNENVLEIKGNDIDPEAVKGEVLKVGNKSCENIHLHSEAVLCTVPNDLLKLNSELNIEWKQAISSTVLGKVIVQPDQNFT
B3: HGF NK1 (domain or fragment, UniProt P14210-1 32-205, looked up)
chain: QRKRRNTIHEFKKSAKTTLIKIDPALKIKTKKVNTADQCANRCTRNKGLPFTCKAFVFDKARKQCLWFPFNSMSSGVKKEFGHEFDLYENKDYIRNCIIGKGRSYKGTVSITKSGIKCQPWSSMIPHEHSFLPSSYRGKDLQENYCRNPRGEEGGPWCFTSNPEVRYEVCDIPQ
B4: IPT Δ1 (domain or fragment, UniProt P08581 657-932, looked up)
chain: PVITSISPKYGPMAGGTLLTLTGNYLNSGNSRHISIGGKTCTLKSVSNSILECYTPAQTISTEFAVKLKIDLANRETSIFSYREDPIVYEIHPTKSFISGGSTITGVGKNLNSVSVPRMVINVHEAGRNFTVACQHRSNSEIICCTTPSLQQLNLQLPLKTKAFFMLDGILSKYFDLIYVHNPVFKPFEKPVMISMGNENVLEIKGNDIDPEAVKGEVLKVGNKSCENIHLHSEAVLCTVPNDLLKLNSELNIEWKQAISSTVLGKVIVQPDQNFT

Assays:
Test in all cases: ELISA
Decoy Met = Decoy Met (UniProt P08581 25-932)
active HGF = active HGF (UniProt P14210 32-494; P14210 495-728)
Sequence of active HGF (P14210 495-728, one chain of several): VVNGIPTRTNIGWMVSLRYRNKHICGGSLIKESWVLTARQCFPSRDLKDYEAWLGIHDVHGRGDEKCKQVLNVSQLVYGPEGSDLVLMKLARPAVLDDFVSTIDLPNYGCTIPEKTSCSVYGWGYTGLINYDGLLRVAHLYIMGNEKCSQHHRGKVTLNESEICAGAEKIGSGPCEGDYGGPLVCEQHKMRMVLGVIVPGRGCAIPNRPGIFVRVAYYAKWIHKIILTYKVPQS

IPT = IPT (UniProt P08581 563-932)
HGF-α = biological target: B1

For B1, which “fold reduced affinity compared with active HGF” value (Decoy Met) is on record?
The value was 4 fold.

Does B2 bind (active HGF)?
Result: binds

For B3, which “fold less tightly than active HGF” value (IPT) is on record?
Its value is 10 times.

And the “fold reduced affinity compared with active HGF” value (Decoy Met)?
The value was 10 fold.

Does B4 bind (HGF-α)?
Result: binds

— article PMC2475716 (The Journal of Biological Chemistry, 2008)
